Measured values: patent US11912970B2, “Universal microfluidic culture system to analyze and control cell dynamics” (The University of Chicago, priority 2017, dated 2024)

B1: M-CSF: myeloid cytokine released during infection and inflammation, employed to induce HSCs differentiation (protein, UniProt P09603 33-554, looked up)
Macrophage colony-stimulating …: EEVSEYCSHMIGSGHLQSLQRLIDSQMETSCQITFEFVDQEQLKDPVCYLKKAFLLVQDIMEDTMRFRDNTPNAIAIVQLQELSLRLKSCFTKDYEEHDKACVRTFYETPLQLLEKVKNVFNETKNLLDKDWNIFSKNCNNSFAECSSQDVVTKPDCNCLYPKAIPSSDPASVSPHQPLAPSMAPVAGLTWEDSEGTEGSSLLPGEQPLHTVDPGSAKQRPPRSTCQSFEPPETPVVKDSTIGGSPQPRPSVGAFNPGMEDILDSAMGTNWVPEEASGEASEIPVPQGTELSPSRPGGGSMQTEPARPSNFLSASSPLPASAKGQQPADVTGTALPRVGPVRPTGQDWNHTPQKTDHPSALLRDPPEPGSPRISSLRPQGLSNPSTLSAQPQLSRSHSSGSVLPLGELEGRRSTRDRRSPAEPEGGPASEGAARPLPRFNSVPLTDTGHERQSEGSFSPQLQESVFHLLVPSVILVLLAVGGLLFYRWRRRSHQEPQRADSPLEQPEGSPLTQDDRQVELPV
B2: Jagged: signaling ligand whose receptor is highly expressed during mouse forebrain development (protein, UniProt Q9QXX0 34-1218, looked up)
Protein jagged-1: QFELEILSMQNVNGELQNGNCCGGVRNPGDRKCTRDECDTYFKVCLKEYQSRVTAGGPCSFGSGSTPVIGGNTFNLKASRGNDRNRIVLPFSFAWPRSYTLLVEAWDSSNDTIQPDSIIEKASHSGMINPSRQWQTLKQNTGIAHFEYQIRVTCDDHYYGFGCNKFCRPRDDFFGHYACDQNGNKTCMEGWMGPDCNKAICRQGCSPKHGSCKLPGDCRCQYGWQGLYCDKCIPHPGCVHGTCNEPWQCLCETNWGGQLCDKDLNYCGTHQPCLNRGTCSNTGPDKYQCSCPEGYSGPNCEIAEHACLSDPCHNRGSCKETSSGFECECSPGWTGPTCSTNIDDCSPNNCSHGGTCQDLVNGFKCVCPPQWTGKTCQLDANECEAKPCVNARSCKNLIASYYCDCLPGWMGQNCDININDCLGQCQNDASCRDLVNGYRCICPPGYAGDHCERDIDECASNPCLNGGHCQNEINRFQCLCPTGFSGNLCQLDIDYCEPNPCQNGAQCYNRASDYFCKCPEDYEGKNCSHLKDHCRTTTCEVIDSCTVAMASNDTPEGVRYISSNVCGPHGKCKSQSGGKFTCDCNKGFTGTYCHENINDCESNPCKNGGTCIDGVNSYKCICSDGWEGAHCENNINDCSQNPCHYGGTCRDLVNDFYCDCKNGWKGKTCHSRDSQCDEATCNNGGTCYDEVDTFKCMCPGGWEGTTCNIARNSSCLPNPCHNGGTCVVNGDSFTCVCKEGWEGPICTQNTNDCSPHPCYNSGTCVDGDNWYRCECAPGFAGPDCRININECQSSPCAFGATCVDEINGYQCICPPGHSGAKCHEVSGRSCITMGRVILDGAKWDDDCNTCQCLNGRVACSKVWCGPRPCRLHKSHNECPSGQSCIPVLDDQCFVRPCTGVGECRSSSLQPVKTKCTSDSYYQDNCANITFTFNKEMMSPGLTTEHICSELRNLNILKNVSAEYSIYIACEPSLSANNEIHVAISAEDIRDDGNPVKEITDKIIDLVSKRDGNSSLIAAVAEVRVQRRPLKNRTDFLVPLLSSVLTVAWVCCLVTAFYWCVRKRRKPSSHTHSAPEDNTTNNVREQLNQIKNPIEKHGANTVPIKDYENKNSKMSKIRTHNSEVEEDDMDKHQQKVRFAKQPVYTLVDREEKAPSGTPTKHPNWTNKQDNRDLESAQSLNRMEYIV

Columns and labels:
Assay type in all cases: cell-based, mouse
mice HSCs = assay: M-CSF induced differentiation of mice HSCs on chip; settings: media replacement through the buffering layer
Source text: FIG. 11B(I) depicts the culture of mice HSCs cells in suspension mode, and (II) depicts the differentiation of mice HSCs cells by introducing M-CSF differentiation media.
Murine hematopoietic stem cells (HSC) are isolated by FACSAria III flow cytometer (BD Biosciences) as Lin−/c-Kit+/Sca-1+/CD48−/CD150+/CD34− (lineage, Lin: CD3e/CD11b/CD19/CD41/B220/Gr-1/Ter-119), which are approximately 50% pure HSCs. Macrophage colony-stimulating factor (M-CSF), a myeloid cytokine released during infection and inflammation, is employed to induce HSCs differentiation. Human CD34+ cells were isolated from mononuclear cells using EasySepTM human CD34 positive selection kit (Stemcell Technologies, Vancouver, BC, Canada). CD34+CD38−CD45RA−CD90+CD49f+ HSCs were sorted using a FACSAria III flow cytometer (BD Biosciences). Pro- and anti-inflammatory cytokines including TNF, IFN[…], IL-6, IP10 and MCP-1 are introduced into the cellular environment as single ligand and in combination. Embryonic NSCs with Hes-GFP and Dcx-RFP reporters were isolated at embryonic day 13.5 from a transgenic mice carrying Hes-GFP and Dcx-RFP using standard protocol (Woo, et al., 2009; Basak, et al., 2007). The resulting primary cells were verified to carry both Hes5-GFP and Dcx-RFP after isolation and allowed to grow for few passages before use in the experiments (Giachino, et al., 2009). […]

NSCs [1] = assay: NSCs proliferation (cell number) under sequential ligand inputs (permutation test and decision tree analysis); settings: sequential input, ligand added at day 1
Source text: (§1) Murine hematopoietic stem cells (HSC) are isolated by FACSAria III flow cytometer (BD Biosciences) as Lin−/c-Kit+/Sca-1+/CD48−/CD150+/CD34− (lineage, Lin: CD3e/CD11b/CD19/CD41/B220/Gr-1/Ter-119), which are approximately 50% pure HSCs. Macrophage colony-stimulating factor (M-CSF), a myeloid cytokine released during infection and inflammation, is employed to induce HSCs differentiation. Human CD34+ cells were isolated from mononuclear cells using EasySepTM human CD34 positive selection kit (Stemcell Technologies, Vancouver, BC, Canada). CD34+CD38−CD45RA−CD90+CD49f+ HSCs were sorted using a FACSAria III flow cytometer (BD Biosciences). […]
(§2) For image acquisition, a Nikon Ti-ECLIPSE microscope with an automated translation stage and a digital CMOS camera (ORCA-Flash 4.0, Hamamatsu, Japan) was used. […] Bright field and fluorescence images were acquired and analyzed using a customized MATLAB program (Mathworks, […]). The algorithm extracts single cell traces including position, nuclear and cytoplasm fluorescence level. For example, the 3T3 cell nuclear area in each image is identified via the fluorescent nuclear marker GFP, and then the mean value of the nuclear intensity of the p65-DsRed marker is measured, and plotted as a function of time. […]

NSCs [2] = assay: NSCs proliferation (cell number) under combinatorial ligand inputs (permutation test and decision tree analysis); settings: combinatorial input, decision tree, without PACAP
Source text: as §1, §2

[3] = system: Hes5-GFP expression in NSCs; assay: NSCs Hes5-GFP expression under sequential ligand inputs (permutation test and decision tree analysis); settings: sequential input
Source text: as §1, §2

Molecule	response of HSCs to ligand input (mice HSCs)	cell number relative to control (NSCs [1])	cell number, mean ratio relative to control (NSCs [2]; Jagged present)	cell number, mean ratio relative to control (NSCs [2]; Jagged with DLL also added)	effect on Hes5 expression ([3]; DLL added before Jagged in the first 3 days)	Hes5 expression relative to control ([3]; ligand added at day 1)
B1	instantaneous response					
B2		111.0 % of the control	1.14	1.08	enhance Hes5 expression	94.5 % of the control
